Laboratory results published in patent US20130109846A1 (published 2013).

Target: human CD28 (human, UniProt P10747 19-220)
Assay: cell-based or functional assay

Row | Binder | Luciferase assay (EC50) [nM] | MLR assay (EC50) [nM]
1 | 1h-36-6 (other) VL: DIQMTQSPSSLSASVGDRVTITCRASRDIALDLLWYQLKPGKAPKLLIKGWSGLQSGVPSRFSGSGSGTDFTLTISSLQPEDFATYFCAQGWGRPVTFGQGTKVEIKR | 162 | 260
2 | 1h-79-1 (other) VL: DIQMTQSPSSLSASVGDRVTITCRASQPIGHSFGWYQQKPGKAPKLLIYWASTLQSGVPTRFSGSGSGTDFTLTISSLQPEDFATYYCQQMLRTPFTFGQGTKVEIKR | 418000 | 2100
3 | 1h-79-1519 (other) VL: DIQMTQSPSSLSASVGDRVTITCRASQPIGHSLGWYQQKPGKAPKLLIYWASLLLDGVPSRFSGSGSGTDFTLTISSLQPEDFATYYCQQMLRTPFTFGQGTKVEIKR | 97 | 37
4 | 1h-79-1512 (other) VL: DIQMTQSPSSLSASVGDRVTITCRASQPIGHSLGWYQQKPGKAPKLLIYWASVLLHGVPSRFSGSGSGTDFTLTISSLQPEDFATYYCQQMLRTPFTFGQGTKVEIKR | 19 | 9
5 | 1h-79-1520 (other) VL: DIQMTQSPSSLSASVGDRVAITCRASQPIGHSLGWYEQKPGKAPKLLIYWSSVLISGVPSRFSGSGSGTDFTLTISSLQPEDFATYYCQQMLRTPFTFGQGTKVEIKR | 113 | 68
6 | 1h-79-2 (other) VL: DTQMTQSPSSLSASVGDRVTITCRASRPIGHSLGWYQQKPGKAPKLLIYWASMLQSGVPSRFSGSGSGTDFTLTISSLQPEDFATYYCQQMLRTPFTFGQGTKVEIKR | 166 | –
7 | 1h-71 (other) VL: DIQMTQSPSSLSASVGDRVTITCRASRDIGHMLNWYQQKPGKAPKLLIWFGSVLQSGVPSRFSGSGSGTDFTLTISSLQPEDFATYYCVQGRLRPPTFGQGTKVEIKR | 3500 | –
8 | 1h-114 (other) VH: EVQLLESGGGLVQPGGSLRLSCAASGFTFASYSMAWVRQAPGKGLEWVSTIMPSGQRTYYADSVKGRFTISRDNSKNTLYLQMNSLRAEDTAVYYCAKNQSHQRRGIFDYWGQGTLVTVSS | 3100 | –
9 | 1h-35-7 (other) VL: DIQMTQSPSSLSASVGDRVTITCRASQYIGSALGWYQQKPGKAPKLLIYRASNLQSGVPSRFSGSGYGTGFTLTISSLQPEDFATYYCQQLAIRPFTFGQGTKVEIKR | 79 | 270
10 | 1h-35-9 (other) VL: DIQMTQSPSSLSASVGDRVTITCRASQYIGSALGWYQQKPGKAPKLLIYRASNMQSGVPSRFSGSGSGTDFTLTISSLQPEDFATYYCQQLAIRPFTFGQGTKVEIKR | 278 | 318
11 | 1h-75 (other) VL: DIQMTQSPSSLSASVGDRVTITCRASQYIGTRLSWYQQKPGKAPKLLIYNASFLQSGVPSRFSGSGSGTDFTLTISSLQPEDFATYYCQQLALSPLTFGQGTKVEIKR | 5700 | –
12 | 1h-74 (other) VL: DIQMTQSPSSLSASVGDRVTITCRASQYIGGALSWYQQKPGKAPKLLIYRASRLQSGVPSRFSGSGSGTDFTLTISSLQPEDFATYYCQQVALVPYTFGQGTKVEIKR | 1300 | –
13 | 1h-38 (other) VL: DIQMTQSPSSLSASVGDRVTITCRASQPIGSVLAWYQQKPGKAPKLLIYFSSILQSGVPSRFSGSGSGTDFTLTISGLQPEDFATYYCQQALRSPFTFGQGTKVEIKR | 650 | 725
14 | 1h-79-15 (other) VL: DIQMTQSPSSLSASVGDRVTITCRASQPIGHSLGWYQQKPGKAPKLLIYWASTLQSGVPSRFSGSGSGTDFTITISSLQPEDFATYYCQQMLRTPFTFGQGTKVEIKR | 40 | 268
15 | 1h-79-17 (other) VL: DIQMTQSPSSLSASVGDRVTITCRASQPIGHSLAWYQQKPGKAPKLLIYWASTLQSGVPSRFSGSGSGTDFTLTISSLQPEDFATYYCQQMLRTPFAFGQGTKVEIKR | 2500 | –
16 | 1h-79-1505 (other) VL: DIQMTQSPSSLSASVGDRVTITCRASQPIGHSLGWYQQKPGKAPKLLIYWGSWLQSGVPSRFSGSGSGTDFTLTISSLQPEDFATYYCQQMLRTPFTFGQGTKVEIKR | 103 | –
17 | 1h-79-20 (other) VL: DIQMTQSPSSLSASVGDRVTVTCRASQPIGHSLAWYQQKPGKAPKLLIYWASMLQSGVPSRFSGSGSGTDFTLTISSLQPEDFATYYCQQMLRTPFTFGQGTKVEIKR | 1800 | –
18 | 1h-39 (other) VL: DIQMTQSPSSLSASVGDRVTITCRASQYIGTALHWYQQKPGKAPRLLIYLSSNLQSGVPSRFSGSGSGTDFTLTISSLQPEDFATYYCQQSALNPYTFGQGTKVEIKR | 1300 | –
19 | 1h-73 (other) VL: DIQMTQSPSSLSASVGDRVTITCRASQYIGTQLSWYQQKPGKAPKLLIYRGSLLQSGVPSRFSGSGSGTDFTLTISSLQPEDFATYYCQQTALSPYTFGQGTKVEIKR | 4900 | –
20 | 1h-69 (other) VL: DIQMTQSPSSLSASVGDRVTITCRASQKIGTGLRWYQQKPGKAPKLLIYRASVLQSGVPSRFSGSGSGTDFTLTISSLQPEDFATYYCQQTAFPPYTFGQGTKVEIKR | > 7000 | –
21 | 1h-72 (other) VL: DIQMTQSPSSLSASVGDRVTITCRASRSINHWLDWYQQKPGKAPTLLISGVSWLQSGVPSRFSGSGSGTDFTLTISSLQPEDFATYYCCQPGFRPCTFGQGTKVEIKR | 3400 | –
22 | 1h-115 (other) VH: EVQLLESGGGLVQPGGSLRLSCAASGFTFSEYSMAWVRQAPGKGLEWVSHISRDGEFTYYADSVKGRFTISRDNSKNTLYLQMNSLRAEDTAVYYCAKGNADLGWVQPHLFVYWGQGTLVTVSS | 4000 | > 7000
23 | 1h-70 (other) VL: DIQMTQSPSSLSASVGDRVTITCRASQSIGTGLRWYQQKPGKAPMLLIYRASILQSGVPSRFSGGGSGTDFTLTISSLQPEDFATYYCQQTWYRPYTFGQGTKVEIKR | 6600 | –
24 | 1h-119 (other) VH: EVQLLESGGGLVQPGGSLRLSCAASGFTFTDRCMMWVRQAPGKGLEWVSSIQVEGNHTYYADSVKGRFTISRDNSKNTLYLQMNSLRAEDTAVYYCAKCMTVGPGNSFDYWGQGTLVTVSS | 2800 | –
